The results in this text go back to paper doi:10.1101/2024.06.05.597462 (bioRxiv, 2024).

Holding throughout (test): fluorescence correlation spectroscopy
One series has as its target Arc NTD-linker-SNAP.
Series [1] deals with the molecule itself.
Series [2] concerns the molecule itself. This is another data set of the same source.

Read-outs that look alike come from different tables or passages of the source.

One may read the stoichiometry N as the number of molecules, sites or subunits per partner or assembly. For the molecule “Arc NTD-linker-SNAP (domain or fragment)”, the stoichiometry N with Arc NTD-linker-SNAP turned out to be 4.

B1: Arc-FL-C-EGFP (natural protein)
chain: MELDHMTTGGLHAYPAPRGGPAAKPNVILQIGKCRAEMLEHVRRTHRHLLTEVSKQVERELKGLHRSVGKLENNLDGYVPTGDSQRWKKSIKACLCRCQETIANLERWVKREMHVWREVFYRLERWADRLESMGGKYPVGSEPARHTVSVGVGGPEPYCQEADGYDYTVSPYAITPPPAAGELPEQESVGAQQYQSWVPGEDGQPSPGVDTQIFEDPREFLSHLEEYLRQVGGSEEYWLSQIQNHMNGPAKKWWEFKQGSVKNWVEFKKEFLQYSEGTLSREAIQRELDLPQKQGEPLDQFLWRKRDLYQTLYVDAEEEEIIQYVVGTLQPKFKRFLRHPLPKTLEQLIQRGMEVQDGLEQAAEPSVTPLPTEDETEALTPALTSESVASDRTQPE
In the case of B1, the “stoichiometry N” value in series [1] turned out to be 4.3; in series [2] it was 627.
